From patent publication EP2004352B1 (Palatin Technologies, Inc., dated 2012)
Bridge positions count the residues as written; N and C are the ends.

Legend:
[1] = target: T1, human natriuretic peptide receptor A (NPRA) (human, UniProt P16066 33-1061); test: cell-based or functional assay
T1 sequence (looked up): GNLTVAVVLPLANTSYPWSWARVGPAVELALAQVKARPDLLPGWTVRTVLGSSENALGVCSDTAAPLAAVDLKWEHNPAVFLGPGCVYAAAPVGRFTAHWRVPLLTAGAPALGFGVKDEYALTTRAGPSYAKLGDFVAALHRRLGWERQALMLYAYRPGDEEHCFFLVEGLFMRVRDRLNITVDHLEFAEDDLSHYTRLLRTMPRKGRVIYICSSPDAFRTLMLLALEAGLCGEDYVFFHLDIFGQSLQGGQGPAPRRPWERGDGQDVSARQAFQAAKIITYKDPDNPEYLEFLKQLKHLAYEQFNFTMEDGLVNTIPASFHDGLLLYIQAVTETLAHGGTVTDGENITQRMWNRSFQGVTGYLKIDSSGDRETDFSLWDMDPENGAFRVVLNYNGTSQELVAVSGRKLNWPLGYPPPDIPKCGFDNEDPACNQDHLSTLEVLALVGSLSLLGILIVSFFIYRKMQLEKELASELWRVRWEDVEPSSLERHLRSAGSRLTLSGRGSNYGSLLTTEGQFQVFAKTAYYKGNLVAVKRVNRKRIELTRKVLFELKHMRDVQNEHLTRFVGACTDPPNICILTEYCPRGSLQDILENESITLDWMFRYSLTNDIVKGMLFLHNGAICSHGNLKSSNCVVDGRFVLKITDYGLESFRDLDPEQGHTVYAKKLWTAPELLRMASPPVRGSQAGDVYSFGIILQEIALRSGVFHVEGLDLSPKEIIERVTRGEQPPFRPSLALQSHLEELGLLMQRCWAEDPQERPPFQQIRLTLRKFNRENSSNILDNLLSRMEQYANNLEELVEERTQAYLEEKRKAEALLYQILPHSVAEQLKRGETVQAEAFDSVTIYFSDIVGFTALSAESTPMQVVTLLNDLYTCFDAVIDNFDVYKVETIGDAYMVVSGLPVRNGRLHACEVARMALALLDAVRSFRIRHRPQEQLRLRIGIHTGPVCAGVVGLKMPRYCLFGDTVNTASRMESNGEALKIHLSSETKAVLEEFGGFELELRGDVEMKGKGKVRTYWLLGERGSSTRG

[2] = target: T1, human natriuretic peptide receptor A …; test: competition with [125I]-ANP on HEK-hNPRA membrane homogenates

EC50 (cGMP accumulation) [1]: 3.3 nM | Ki [2]: 0.6 nM
B1: mini-ANP, H-Met-cyclo(Cys-His-Phe-Gly-Gly-Arg-Met-Asp-Arg-Ile-Ser-Cys)-Tyr-Arg-NH2 (peptide)
peptide: H-MCHFGGRMDRISCYR-NH2
modifications: disulfide 2-13
SMILES: CC[C@H](C)[C@@H]1NC(=O)[C@H](CCCNC(=N)N)NC(=O)[C@H](CC(=O)O)NC(=O)[C@H](CCSC)NC(=O)[C@H](CCCNC(=N)N)NC(=O)CNC(=O)CNC(=O)[C@H](Cc2ccccc2)NC(=O)[C@H](Cc2c[nH]cn2)NC(=O)[C@@H](NC(=O)[C@@H](N)CCSC)CSSC[C@@H](C(=O)N[C@@H](Cc2ccc(O)cc2)C(=O)N[C@@H](CCCNC(=N)N)C(N)=O)NC(=O)[C@H](CO)NC1=O
notes: also called min-ANP; parent polypeptide
